Paper PMC10094569

Target: human IgG1 Fc, from HEK-293T cells (human)
Test: SEC; each protein alone on Superdex 200 in PBS; molecular weights from the filtration patterns

Substance: human IgG1 Fc, from HEK-293T cells (domain or fragment)
- stoichiometry N: 2
